Measurements as given in the supplement of paper PMC10065799, “High-throughput profiling of sequence recognition by tyrosine kinases and SH2 domains using bacterial peptide display” (eLife, 2023).

Columns and labels:
[1] = molecular target: FGFR1 (UniProt P11362); test: phosphorylation enrichment, bacterial display (enrichment ratio); higher = better substrate or ligand; peptides without Tyr show the background
[2] = molecular target: Fyn (UniProt P06241); test: as above
[3] = molecular target: EPHB2 (UniProt P29323); test: as above
Chain of EPHB2 (P29323 whole entry, looked up): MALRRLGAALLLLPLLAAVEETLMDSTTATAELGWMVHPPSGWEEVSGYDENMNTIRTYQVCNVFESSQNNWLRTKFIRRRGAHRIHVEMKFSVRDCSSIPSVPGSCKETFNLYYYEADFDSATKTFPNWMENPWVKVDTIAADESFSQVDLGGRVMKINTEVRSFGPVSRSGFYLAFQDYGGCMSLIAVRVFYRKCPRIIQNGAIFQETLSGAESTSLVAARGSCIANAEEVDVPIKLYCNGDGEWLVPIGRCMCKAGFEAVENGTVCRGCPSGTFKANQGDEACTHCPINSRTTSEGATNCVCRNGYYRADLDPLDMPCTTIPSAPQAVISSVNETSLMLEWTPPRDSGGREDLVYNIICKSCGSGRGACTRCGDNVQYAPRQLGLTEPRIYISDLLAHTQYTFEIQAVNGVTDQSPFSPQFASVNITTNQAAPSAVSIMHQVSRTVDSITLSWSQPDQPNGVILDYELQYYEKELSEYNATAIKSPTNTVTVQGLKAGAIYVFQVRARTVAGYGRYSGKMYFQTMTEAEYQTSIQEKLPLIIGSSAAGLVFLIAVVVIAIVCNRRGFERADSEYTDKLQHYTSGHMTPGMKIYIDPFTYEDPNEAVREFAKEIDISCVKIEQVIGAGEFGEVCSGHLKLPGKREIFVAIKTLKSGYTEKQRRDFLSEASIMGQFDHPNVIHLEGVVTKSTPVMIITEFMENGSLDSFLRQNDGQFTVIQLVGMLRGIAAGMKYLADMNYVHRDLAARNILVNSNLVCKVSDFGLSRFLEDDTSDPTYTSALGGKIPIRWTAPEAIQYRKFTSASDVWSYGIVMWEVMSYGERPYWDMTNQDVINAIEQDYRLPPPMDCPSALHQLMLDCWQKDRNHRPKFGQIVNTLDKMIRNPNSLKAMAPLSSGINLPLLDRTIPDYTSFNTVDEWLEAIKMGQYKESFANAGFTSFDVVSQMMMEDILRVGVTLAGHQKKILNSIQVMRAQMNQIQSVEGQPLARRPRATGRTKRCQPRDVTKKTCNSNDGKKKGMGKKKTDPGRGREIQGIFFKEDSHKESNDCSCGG

[4] = test system: c-Abl (mouse); test: as above
[5] = molecular target: MERTK (UniProt Q12866); test: as above
Chain of MERTK (Q12866 whole entry, looked up): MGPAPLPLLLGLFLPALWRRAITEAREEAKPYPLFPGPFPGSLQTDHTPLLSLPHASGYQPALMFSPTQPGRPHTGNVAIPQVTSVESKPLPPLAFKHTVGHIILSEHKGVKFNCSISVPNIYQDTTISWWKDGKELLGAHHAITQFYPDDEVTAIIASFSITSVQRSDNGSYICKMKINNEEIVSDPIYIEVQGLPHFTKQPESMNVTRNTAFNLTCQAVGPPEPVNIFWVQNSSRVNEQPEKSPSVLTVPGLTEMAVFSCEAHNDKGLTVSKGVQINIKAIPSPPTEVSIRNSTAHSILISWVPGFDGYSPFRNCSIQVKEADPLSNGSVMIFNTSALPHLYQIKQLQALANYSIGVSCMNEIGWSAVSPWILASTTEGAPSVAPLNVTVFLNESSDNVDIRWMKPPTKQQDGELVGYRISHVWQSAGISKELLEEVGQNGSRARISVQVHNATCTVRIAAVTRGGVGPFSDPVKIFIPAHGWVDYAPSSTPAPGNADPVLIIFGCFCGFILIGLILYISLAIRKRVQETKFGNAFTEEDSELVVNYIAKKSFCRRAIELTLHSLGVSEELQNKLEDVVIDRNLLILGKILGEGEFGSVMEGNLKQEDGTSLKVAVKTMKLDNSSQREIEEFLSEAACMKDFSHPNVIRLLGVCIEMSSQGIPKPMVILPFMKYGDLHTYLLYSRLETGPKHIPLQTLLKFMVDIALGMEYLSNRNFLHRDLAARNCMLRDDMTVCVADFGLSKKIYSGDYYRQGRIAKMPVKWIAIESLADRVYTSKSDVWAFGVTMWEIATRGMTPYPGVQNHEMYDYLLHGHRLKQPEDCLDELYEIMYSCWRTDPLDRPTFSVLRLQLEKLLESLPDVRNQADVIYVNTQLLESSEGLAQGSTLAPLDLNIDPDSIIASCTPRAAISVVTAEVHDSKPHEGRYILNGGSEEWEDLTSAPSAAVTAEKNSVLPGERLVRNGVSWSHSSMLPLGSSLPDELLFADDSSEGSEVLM

[6] = molecular target: FGFR3 (UniProt P22607); test: as above
[7] = test system: AncSZ; test: as above
[8] = molecular target: Fes (UniProt P07332); test: as above
Chain of Fes (P07332 whole entry, looked up): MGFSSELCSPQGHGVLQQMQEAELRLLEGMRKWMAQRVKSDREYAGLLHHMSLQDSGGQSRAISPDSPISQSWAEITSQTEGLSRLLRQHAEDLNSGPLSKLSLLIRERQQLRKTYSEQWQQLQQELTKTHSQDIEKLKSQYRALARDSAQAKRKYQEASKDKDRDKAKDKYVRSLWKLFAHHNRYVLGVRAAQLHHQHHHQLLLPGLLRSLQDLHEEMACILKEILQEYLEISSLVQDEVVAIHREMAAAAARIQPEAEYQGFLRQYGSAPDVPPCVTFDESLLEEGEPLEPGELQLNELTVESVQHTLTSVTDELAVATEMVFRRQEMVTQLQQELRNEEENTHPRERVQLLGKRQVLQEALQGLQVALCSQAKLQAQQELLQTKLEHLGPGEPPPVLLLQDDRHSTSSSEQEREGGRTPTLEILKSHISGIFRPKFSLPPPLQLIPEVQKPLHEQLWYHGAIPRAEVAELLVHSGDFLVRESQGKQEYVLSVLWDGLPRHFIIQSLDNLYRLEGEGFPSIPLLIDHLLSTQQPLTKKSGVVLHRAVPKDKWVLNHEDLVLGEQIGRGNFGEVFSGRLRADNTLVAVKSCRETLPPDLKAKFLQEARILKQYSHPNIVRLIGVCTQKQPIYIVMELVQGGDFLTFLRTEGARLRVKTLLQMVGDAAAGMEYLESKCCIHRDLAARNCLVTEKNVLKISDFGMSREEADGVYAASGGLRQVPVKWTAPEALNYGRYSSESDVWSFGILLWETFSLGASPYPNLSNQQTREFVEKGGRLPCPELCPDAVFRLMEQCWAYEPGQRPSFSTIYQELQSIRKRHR

[9] = molecular target: EPHB1 (UniProt P54762); test: as above
Chain of EPHB1 (P54762 whole entry, looked up): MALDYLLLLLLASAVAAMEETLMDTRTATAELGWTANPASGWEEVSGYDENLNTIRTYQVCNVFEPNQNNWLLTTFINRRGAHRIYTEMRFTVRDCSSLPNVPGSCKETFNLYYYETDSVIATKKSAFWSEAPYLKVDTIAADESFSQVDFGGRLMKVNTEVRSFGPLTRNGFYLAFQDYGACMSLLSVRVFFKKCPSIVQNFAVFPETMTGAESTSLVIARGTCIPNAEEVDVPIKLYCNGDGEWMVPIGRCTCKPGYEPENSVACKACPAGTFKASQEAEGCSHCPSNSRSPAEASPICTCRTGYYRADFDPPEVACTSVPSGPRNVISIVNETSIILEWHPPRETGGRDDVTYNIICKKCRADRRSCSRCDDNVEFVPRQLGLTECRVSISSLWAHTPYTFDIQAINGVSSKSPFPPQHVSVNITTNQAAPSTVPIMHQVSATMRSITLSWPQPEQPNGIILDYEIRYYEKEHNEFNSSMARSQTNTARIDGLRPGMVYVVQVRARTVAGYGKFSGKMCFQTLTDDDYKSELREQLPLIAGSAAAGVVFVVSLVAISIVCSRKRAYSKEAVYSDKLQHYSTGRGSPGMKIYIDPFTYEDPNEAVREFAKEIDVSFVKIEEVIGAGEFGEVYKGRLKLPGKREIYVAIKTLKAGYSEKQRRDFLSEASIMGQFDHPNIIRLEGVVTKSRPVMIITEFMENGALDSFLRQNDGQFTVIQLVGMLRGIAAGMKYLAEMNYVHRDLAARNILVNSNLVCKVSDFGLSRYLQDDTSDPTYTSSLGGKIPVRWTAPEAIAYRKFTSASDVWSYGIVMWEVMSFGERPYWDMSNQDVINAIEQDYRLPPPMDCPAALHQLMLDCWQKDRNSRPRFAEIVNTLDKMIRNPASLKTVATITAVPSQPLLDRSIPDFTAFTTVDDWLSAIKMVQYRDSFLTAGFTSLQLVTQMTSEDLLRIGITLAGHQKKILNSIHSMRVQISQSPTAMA

[10] = molecular target: Hck (UniProt P08631); test: as above
Chain of Hck (P08631 whole entry, looked up): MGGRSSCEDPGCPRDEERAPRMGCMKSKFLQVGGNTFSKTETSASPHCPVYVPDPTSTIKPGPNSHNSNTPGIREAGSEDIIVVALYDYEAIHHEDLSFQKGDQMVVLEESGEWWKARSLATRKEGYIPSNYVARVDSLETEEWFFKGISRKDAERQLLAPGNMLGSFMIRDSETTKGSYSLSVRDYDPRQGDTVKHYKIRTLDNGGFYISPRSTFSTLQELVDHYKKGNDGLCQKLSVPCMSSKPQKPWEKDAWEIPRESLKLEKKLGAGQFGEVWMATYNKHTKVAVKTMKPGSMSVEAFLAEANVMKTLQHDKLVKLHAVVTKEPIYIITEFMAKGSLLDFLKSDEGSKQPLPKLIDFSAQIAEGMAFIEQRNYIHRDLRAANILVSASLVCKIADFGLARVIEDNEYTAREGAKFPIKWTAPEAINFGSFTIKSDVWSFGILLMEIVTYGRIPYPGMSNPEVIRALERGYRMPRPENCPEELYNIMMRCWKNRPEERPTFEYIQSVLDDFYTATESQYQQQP

[11] = test system: Fer (mouse); test: as above
[12] = molecular target: Jak2 (UniProt O60674); test: as above
[13] = test system: c-Src; test: as above
[14] = molecular target: Grb2 SH2 (UniProt P62993); test: SH2 binding enrichment of the phosphorylated peptide, bacterial display (enrichment ratio); higher = better substrate or ligand; peptides without Tyr show the background
Chain of Grb2 SH2 (P62993 whole entry, looked up): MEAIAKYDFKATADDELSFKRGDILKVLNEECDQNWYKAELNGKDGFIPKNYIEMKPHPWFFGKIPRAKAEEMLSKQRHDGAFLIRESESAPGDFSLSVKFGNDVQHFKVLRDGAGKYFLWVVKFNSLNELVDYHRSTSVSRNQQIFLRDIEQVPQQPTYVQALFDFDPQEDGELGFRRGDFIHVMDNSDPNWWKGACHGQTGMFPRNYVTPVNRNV

[15] = molecular target: SHP2-C SH2; test: as above
[16] = molecular target: c-Src SH2; test: as above
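Wherever SH2 binding enrichment of the phosphorylated peptide, bacterial display is given: peptide library displayed on the E. coli surface as eCPX fusions, selected cells deep-sequenced, score is each peptide's frequency after selection divided by its frequency in the input.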
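Wherever phosphorylation enrichment, bacterial display is given: 11-residue human phosphosite peptides and single-mutation variants displayed on the E. coli surface, counted by deep sequencing, each peptide's frequency after selection divided by its frequency in the unselected input library; frequency after pTyr selection over input frequency; kinase dosed for 20-30% of maximal phosphorylation in three min.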

Sequence	phosphorylation enrichment [1]	phosphorylation enrichment [2]	phosphorylation enrichment [3]	phosphorylation enrichment [4]	phosphorylation enrichment [5]	phosphorylation enrichment [6]	phosphorylation enrichment [7]	phosphorylation enrichment [8]	phosphorylation enrichment [9]	phosphorylation enrichment [10]	phosphorylation enrichment [11]	phosphorylation enrichment [12]	phosphorylation enrichment [13]	SH2 binding enrichment [14]	SH2 binding enrichment [15]	SH2 binding enrichment [16]
RRSQSYNPTSG [PLEKHA2_Y185_I186N]	0.649	0.897	0.512	0.765	0.491	0.523	0.612	0.972	0.435	0.821	0.458	0.809	0.811	0.692	0.461	0.323
RSAGKYDVYLI [MECP2_Y120]	0.433	1.31	0.77	0.587	0.412	0.717	0.885	1.06	0.525	0.878	0.555	0.987	1.8	0.651	0.539	0.579
RTLTHYKSAVK [ASNS_Y555]	0.35	0.35	0.411	0.563	0.702	0.545	0.532	0.813	0.678	0.5	0.312	0.801	0.588	0.934	0.83	0.545
RTTIHYNFMCN [TP53_Y234_C229R_YF]	0.648	0.527	0.808	2.01	0.609	1.11	1.33	1.46	0.908	0.54	0.668	1.29	0.514	0.884	0.657	0.624
RVILRYVNPGT [LAMA3_Y791]	0.538	0.591	0.666	0.663	0.385	0.883	1.06	1.13	0.838	0.561	0.606	0.947	0.448	1.44	0.632	0.717
RYFTTYDTNGR [CLCA1_Y665]	0.709	0.693	0.698	0.296	0.557	0.598	0.657	0.746	0.672	0.943	0.471	0.742	0.774	0.777	1.24	0.556
RYVTRHIYNRE [HLA-DQB1_Y62_Y62H]	0.291	0.73	0.795	0.751	0.857	0.525	0.966	0.777	0.525	0.662	0.469	0.589	0.874	0.718	0.64	0.414
SAPDSYIGIGN [SLC38A4_Y27]	0.502	0.511	0.533	0.594	0.59	0.556	0.669	0.742	0.484	0.495	0.404	0.739	0.437	0.769	0.764	0.584
SAPDSYIRIGN [SLC38A4_Y27_G29R]	0.424	0.357	0.396	0.483	0.488	0.436	0.594	0.796	0.359	0.47	0.35	0.52	0.352	0.79	0.757	0.814
SAPPSHEETVA [LITAF_Y23_Y23H]	0.374	0.481	0.393	0.489	0.338	0.84	0.453	0.597	0.435	0.342	0.524	0.817	0.404	0.62	0.549	0.4
SDFSRYARTSI [TERT_Y949_S948R_YF]	0.48	0.408	0.466	0.502	0.48	0.487	0.537	0.6	0.463	0.484	0.358	0.502	0.442	1.05	0.901	0.476
SDQRRYSLIDP [CLIP2_Y972_R977P]	0.533	0.574	0.567	0.488	1.3	0.64	0.683	0.719	0.56	0.466	0.545	0.587	0.383	0.889	3.82	15.9
SDQRRYSLIDR [CLIP2_Y972]	0.356	0.394	0.444	0.467	0.419	0.421	0.508	0.558	0.327	0.366	0.412	0.479	0.358	0.833	0.861	3.35
SDYSSYARTSI [TERT_Y949]	0.553	0.845	2.84	0.639	0.52	0.7	0.792	0.558	1.63	0.862	0.542	0.725	0.897	0.725	0.637	0.535
SEDANYMRVSC [TTC3_Y1288_K1289M]	0.735	0.529	1.42	0.7	0.455	0.742	1.03	0.958	2.98	0.563	0.645	0.743	0.468	0.819	0.746	0.534
SEDSEYYRAFE [CASQ2_Y178_K180R]	0.869	0.823	0.696	0.89	0.523	1.24	2.7	1.29	0.67	0.685	0.515	1.29	0.824	0.901	0.67	0.47
SEELHYYVQNH [UQCRC2_Y207_F208Y]	3.68	0.633	0.788	2.09	2.86	4.09	2.04	1.62	0.89	0.732	0.954	1.68	1.48	0.799	0.451	0.723

Sequence	phosphorylation enrichment [1]	phosphorylation enrichment [2]	phosphorylation enrichment [3]	phosphorylation enrichment [4]	phosphorylation enrichment [5]	phosphorylation enrichment [6]	phosphorylation enrichment [7]	phosphorylation enrichment [8]	phosphorylation enrichment [9]	phosphorylation enrichment [10]	phosphorylation enrichment [11]	phosphorylation enrichment [12]	phosphorylation enrichment [13]	SH2 binding enrichment [14]	SH2 binding enrichment [15]	SH2 binding enrichment [16]
SEKIVYGHLDD [ACO2_Y71]	0.432	0.817	0.556	0.793	0.359	0.573	0.829	1	0.499	0.639	0.505	0.815	0.847	0.865	0.926	0.56
SENAFYLSPHI [COL6A3_Y2827_D2831H]	0.653	0.487	0.573	1.96	0.696	0.693	1.26	0.887	0.576	0.863	0.775	3.25	0.491	0.776	0.606	0.461
SEPDLYFDPRG [PKP1_Y160_C161Y_YF]	9.25	4.59	11.4	2.71	4.69	6.9	2.86	1.14	13.1	9.33	0.841	3.41	4.46	0.9	0.741	0.492
SFGESYDNSKS [MAN1B1_Y60_N59S]	0.493	0.466	0.508	0.747	0.502	0.595	0.813	0.953	0.474	0.482	0.433	0.939	0.508	0.928	0.568	0.437
SGETEYNPTEA [NBEAL2_Y2748]	0.77	0.69	0.671	1.16	0.562	0.82	1.47	1.55	0.729	0.707	0.604	1.26	0.59	0.803	0.628	0.488
SGFESYGSSSY [RPA2_Y9]	0.368	0.44	0.478	0.718	0.382	0.462	0.582	0.765	0.341	0.474	0.403	0.821	0.481	0.672	0.708	0.541
SGVSYYINLCQ [IGF2R_Y2025_N2020S]	0.543	0.38	0.635	0.803	0.316	0.824	1.01	1.5	0.682	0.51	1.03	1.32	0.33	0.743	0.642	0.531
SHSMRYFDTAV [HLA-C_Y31]	0.471	0.416	0.329	0.436	0.497	0.521	0.57	0.586	0.42	0.424	0.384	0.492	0.367	0.716	0.467	0.51
SILAVYSKDIY [PANK2_Y400_N404I]	0.518	2.43	0.788	0.537	2.91	0.713	1.07	0.924	0.745	2.48	0.45	1.04	2.84	0.897	0.903	0.726
SILTVYSKDNF [PANK2_Y400_A398T_YF]	0.572	0.516	0.514	0.456	0.454	0.627	0.814	0.894	0.549	0.548	0.481	0.907	0.6	0.838	0.73	0.466
SKDSAYVTWEP	1.48	1.5	0.576	0.702	1.14	1.06	0.988	0.971	0.518	1.32	1.65	0.914	1.59	0.975	0.726	0.654
SKHRLYSDLQT [PTCHD1_Y84]	0.339	0.376	0.484	0.476	0.645	0.411	0.5	0.715	0.443	0.422	0.654	0.406	0.371	1.3	1.12	1.57
SLESAYPEGSQ [TTF1_Y357]	0.61	0.539	0.574	0.601	0.366	0.629	0.877	0.968	0.463	0.593	0.457	0.712	0.406	0.861	0.814	0.522
SLFNGYVYSGM [NEIL3_Y71_V76M]	0.585	5.64	0.579	0.625	0.548	0.659	0.844	0.994	0.653	2.72	0.581	1.15	5.4	1.06	2.05	2.6
SLIDMYSEVLA [OPA1_Y268_D273A]	1.12	0.959	0.869	0.539	0.615	0.832	1.24	1.03	0.766	0.873	0.891	0.925	1.61	0.966	0.762	0.553
SLVVPYEPPEV [TP53_Y220_V216L]	0.672	0.62	0.756	1.26	0.595	0.836	1.28	1.29	0.769	0.663	0.666	1.33	0.547	0.789	0.772	0.696
